The values below come from patent US5739278A, “Compositions for protein tyrosine phosphatases” (University of Washington, priority 1995, dated 1998).

One assay concerns the target T1, PTP1B (Homo sapiens, UniProt P18031).
T1 construct: The 37 kDa form of PTP1B; from tissue; host or cells: placenta
T1 sequence (P18031 1-321 limits assumed): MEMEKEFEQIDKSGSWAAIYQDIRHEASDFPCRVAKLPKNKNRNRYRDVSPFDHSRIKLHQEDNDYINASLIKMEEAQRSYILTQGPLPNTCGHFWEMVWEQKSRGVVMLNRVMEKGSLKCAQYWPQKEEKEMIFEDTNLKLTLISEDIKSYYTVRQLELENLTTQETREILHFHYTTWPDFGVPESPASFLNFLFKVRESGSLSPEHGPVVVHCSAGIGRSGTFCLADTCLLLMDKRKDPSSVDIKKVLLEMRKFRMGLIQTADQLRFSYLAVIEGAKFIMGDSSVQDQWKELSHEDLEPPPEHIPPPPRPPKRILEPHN
Briefly: Phosphatase assay with ENDY(P)INASL as substrate. It is filed as biochemical. To be noted: non-linear regression of substrate saturation curves, mean of two experiments. Summed up:
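Dephosphorylation of ENDY(P)INASL was followed at 30° C over 10 minutes in buffer M6. Recombinant RPTPα and TC.PTP (Sf9) plus tissue-derived PTP1B (placenta, 37 kDa) and CD45 (spleen) served as enzymes; charcoal-cleared supernatant was counted.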

The target in the next assay is T2, TC.PTP (Homo sapiens, UniProt P17706).
T2 construct: made in house; host or cells: Sf9 cells (baculovirus)
T2 sequence (P17706 1-415): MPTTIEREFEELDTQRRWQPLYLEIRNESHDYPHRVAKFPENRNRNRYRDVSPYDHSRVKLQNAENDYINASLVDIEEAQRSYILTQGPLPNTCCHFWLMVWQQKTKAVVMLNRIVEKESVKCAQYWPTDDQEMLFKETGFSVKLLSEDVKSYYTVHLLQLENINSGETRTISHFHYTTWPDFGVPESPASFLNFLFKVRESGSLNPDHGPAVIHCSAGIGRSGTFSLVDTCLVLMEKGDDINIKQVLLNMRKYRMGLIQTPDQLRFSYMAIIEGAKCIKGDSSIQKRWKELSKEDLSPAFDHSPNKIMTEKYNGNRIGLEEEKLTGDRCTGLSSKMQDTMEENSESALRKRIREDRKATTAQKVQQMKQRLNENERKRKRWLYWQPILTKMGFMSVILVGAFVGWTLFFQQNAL
Description: Determination of TC.PTP activity in immunoprecipitates. It is filed as biochemical. Conditions: for % Dephosphorylation: 100% = total bound radioactivity in the assay. The method, then:
Immunoprecipitations were carded out in 500 μl buffer AT containing phosphatase (in the amount indicated in the tables below), 3 μl rabbit antisera #6228 raised against the baculovirus expressed TCΔC11.PTP (Zander et al., Biochemistry 30: 6964-6970, 1991) and 20 μl protein A agarose beads. The mixture was rotated overnight at 4° C. The beads were washed three times with HNTG and tested for PTP activity. No PTP activity was detected in controls without antisera.
Phosphatase assays with ENDY(P)INASL were performed in buffer M6. Aliquots of 30 μl or 60 μl containing the phosphopeptide, the phosphatase (-beads) and effectors were incubated for 10 minutes at 30° C. The reaction was stopped by adding 200 μl of a suspension of 10% activated, acid-washed Norit A charcoal (v/v) in 0.9N HCl, 0.1M pyrophosphate and 2 mM NaH2 PO4 (according to Streuli et al., Proc. Natl. Acad. Sci. USA 86: 8698-8702, 1989). The mixture was cleared by 10-minute centrifugation and the radioactivity of 150 μl of the supernate was determined. Assays with MBP and RCML were performed as described in Tonks et al., J. Biol. Chem. 263: 6722-6730, 1988. Protein concentration was determined with BSA as standard (Bradford, Anal. Biochem. 72: 248-254, 1976).

Where no end group is shown, it is not given here. [ ]: non-standard residue; d: D form. pY = N[C@@H](Cc1ccc(OP(=O)(O)O)cc1)C(=O)O

For the substance “ENDY(P)INASL: ENDYINASL phosphorylated on its tyrosine residue (32P), used as PTP substrate (END[pY]INASL; also: phosphate 32P-labelled)”, the Michaelis-Menten constant (Km) with PTP1B amounted to 800 ± 450 nM. In addition, the “Lowest amount of immunoprecipitated phosphatase that could be detected with the substrate” value with TC.PTP (TC.PTP immunoprecipitates on beads) was found to be 1 ng. Also, the “% Dephosphorylation” value is 0% in the assay with TC.PTP (immunoprecipitated TC.PTP 0.3 ng); 1.8% with TC.PTP (immunoprecipitated TC.PTP 1 ng); 3.9% with TC.PTP (immunoprecipitated TC.PTP 3 ng); 10.8% in the assay with TC.PTP (immunoprecipitated TC.PTP 10 ng); 17.5% in the assay with TC.PTP (immunoprecipitated TC.PTP 30 ng); 28.1% in the assay with TC.PTP (immunoprecipitated TC.PTP 100 ng).

In general, Km refers to the concentration of substrate that gives half-maximal velocity.
